Measured values reported in US20050169917A1.

The binders below were run against Orphanin FQ receptor, normal (NT), expressed in Cos-7 cells (UniProt P35370) (assay: inhibition of [125I] Y14-OFQ17 binding, Cos-7 cells transfected with OFQR).

Binder | IC50
FGGFTGARKSA [OFQ11] | 5000 nM
FGGFTGARKSARCLANQ [synthetic OFQ17 with K13C] | 0.1 nM
FGGFTGAKKSARKLANQ [synthetic OFQ17 with R8K] | 0.1 nM
